Each block holds one substance with its values, some of them ahead of it.
Experiments:
[1] = molecular target: human FcRn (heterodimer of an alpha chain and a β2-microglobulin subunit), soluble (human) (UniProt P55899); experiment: FcRn affinity at pH 6.0, as shown in FIG. 24 (BIAcore, human FcRn)
[2] = molecular target: human FcRn (heterodimer of an alpha chain and a β2-microglobulin subunit), soluble (human) (UniProt P55899); experiment: SPR (BIAcore), soluble human FcRn injected over chip-coupled IgG, pH 6.0, 25 C, monovalent KD
[3] = molecular target: human FcRn (heterodimer of an alpha chain and a β2-microglobulin subunit), soluble (human) (UniProt P55899); experiment: SPR, soluble human FcRn injected over IgG-coupled chip, monovalent KD, pH 6.0, 25 C
[4] = molecular target: human FcRn (heterodimer of an alpha chain and a β2-microglobulin subunit), soluble (human) (UniProt P55899); experiment: SPR (BIAcore 3000), IgG injected over chip-coupled human FcRn, pH 6.0, 25 C; apparent (bivalent) KD estimated from the steady state curves of FIG. 1, Run 2
[5] = molecular target: human FcRn (heterodimer of an alpha chain and a β2-microglobulin subunit), soluble (human) (UniProt P55899); experiment: SPR, bivalent IgG over human FcRn-coupled chip, steady state, apparent KD, pH 6.0, 25 C, second run (about two fold higher RU of FcRn)
[6] = molecular target: human FcRn (heterodimer of an alpha chain and a β2-microglobulin subunit), soluble (human) (UniProt P55899); experiment: SPR, human FcRn; fold over wildtype, summarized from FIGS. 4 and 5
[7] = molecular target: cynomolgus monkey FcRn (cyno alpha chain and cyno β2-microglobulin), soluble (cynomolgus monkey) (UniProt Q8SPV9); experiment: SPR (BIAcore 3000), soluble cyno FcRn injected over chip-coupled IgG, pH 6.0, 25 C
Sequence of UniProt Q8SPV9 (Q8SPV9 24-297 limits assumed, chain 1 of 2): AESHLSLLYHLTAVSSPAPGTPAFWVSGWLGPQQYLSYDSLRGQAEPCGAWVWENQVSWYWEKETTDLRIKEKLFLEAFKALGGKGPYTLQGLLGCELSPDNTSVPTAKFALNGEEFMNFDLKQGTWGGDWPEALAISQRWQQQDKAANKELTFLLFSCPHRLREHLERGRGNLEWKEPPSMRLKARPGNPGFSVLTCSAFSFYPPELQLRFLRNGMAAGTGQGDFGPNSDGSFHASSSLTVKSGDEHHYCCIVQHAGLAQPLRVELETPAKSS
Sequence of UniProt Q8SPV9 (Q8SPW0 21-119 limits assumed, chain 2 of 2, further chain): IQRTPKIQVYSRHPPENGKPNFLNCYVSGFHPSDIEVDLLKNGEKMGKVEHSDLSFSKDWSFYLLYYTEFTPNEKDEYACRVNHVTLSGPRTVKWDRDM

[8] = molecular target: human FcRn (heterodimer of an alpha chain and a β2-microglobulin subunit), soluble (human) (UniProt P55899); experiment: SPR (BIAcore 3000), soluble human FcRn injected over chip-coupled IgG, pH 6.0, 25 C
[9] = molecular target: cynomolgus monkey FcRn (cyno alpha chain and cyno β2-microglobulin), soluble (cynomolgus monkey) (UniProt Q8SPV9); experiment: SPR (BIAcore 3000), soluble cyno FcRn injected over chip-coupled IgG, pH 6.0, 25 C; monovalent KD (a) determined by ratio of koff to kon
[10] = molecular target: human FcRn (heterodimer of an alpha chain and a β2-microglobulin subunit), soluble (human) (UniProt P55899); experiment: SPR (BIAcore 3000), soluble human FcRn injected over chip-coupled IgG, pH 6.0, 25 C; monovalent KD (a) determined by ratio of koff to kon
[11] = molecular target: cynomolgus monkey FcRn (cyno alpha chain and cyno β2-microglobulin), soluble (cynomolgus monkey) (UniProt Q8SPV9); experiment: SPR (BIAcore 3000), soluble cyno FcRn injected over chip-coupled IgG, pH 6.0, 25 C; monovalent KD (b) determined by fitting the steady state RU against concentration
[12] = molecular target: human FcRn (heterodimer of an alpha chain and a β2-microglobulin subunit), soluble (human) (UniProt P55899); experiment: SPR (BIAcore 3000), soluble human FcRn injected over chip-coupled IgG, pH 6.0, 25 C; monovalent KD (b) determined by fitting the steady state RU against concentration
[13] = molecular target: human FcRn (heterodimer of an alpha chain and a β2-microglobulin subunit), soluble (human) (UniProt P55899); experiment: SPR (BIAcore 3000), IgG injected over chip-coupled human FcRn, pH 6.0, 25 C; apparent (bivalent) KD estimated from the steady state curves of FIG. 1, Run 1

- fold higher FcRn affinity at pH 6.0 compared to the wildtype antibody [1]: 3 fold
Substance: IgG1 variant N434A of a different human antibody

- Kd [2]: 570 nM
Substance: N434A (antibody)

- Kd [2]: 44 nM
Substance: N434W (antibody)

- fold improvement of affinity over the wild-type IgG1 [3]: 450 fold
- Kd [2]: 3.7 nM
Substance: anti-HER2 (trastuzumab) IgG1 variant M252Y/V308P/N434Y (antibody)

- Kd [4]: 500 nM
Substance: anti-VEGF (Bevacizumab) IgG1 variant A378V (antibody)

- Kd [5]: 250 nM
Substance: anti-VEGF (Bevacizumab) IgG1 variant N434A (antibody)

- Bivalent Affinity Fold increase at pH 6.0 [6]: 9 fold
- Bivalent Affinity Fold increase at pH 7.4 [6]: 6 fold
- Monovalent Affinity Fold increase at pH 6.0 [6]: 3 fold
- koff [7]: 0.218 s⁻¹
- kon [7]: 480000 M⁻¹ s⁻¹
- koff [8]: 0.166 s⁻¹
- kon [8]: 400000 M⁻¹ s⁻¹
- Kd [9]: 450 nM
- Kd [10]: 420 nM
- Kd [4]: 100 nM
- Kd [11]: 470 nM
- Kd [12]: 470 nM
Substance: anti-VEGF (Bevacizumab) IgG1 variant N434H (antibody)

- Kd [4]: 250 nM
Substance: anti-VEGF (Bevacizumab) IgG1 variant T307Q (antibody)

- Kd [4]: 90 nM
Substance: anti-VEGF (Bevacizumab) IgG1 variant T307Q/A378V (antibody)

- Kd [4]: 30 nM
Substance: anti-VEGF (Bevacizumab) IgG1 variant T307Q/A378V/Y436I (antibody)

- Kd [9]: 153 nM
- Kd [10]: 146 nM
- Kd [11]: 160 nM
- Kd [12]: 148 nM
Substance: anti-VEGF (Bevacizumab) IgG1 variant T307Q/E380A/N434S (antibody)

- Kd [9]: 240 nM
- Kd [10]: 240 nM
- Kd [13]: 180 nM
- Kd [11]: 241 nM
- Kd [12]: 258 nM
Substance: anti-VEGF (Bevacizumab) IgG1 variant T307Q/N434A (antibody)

- Kd [4]: 70 nM
Substance: anti-VEGF (Bevacizumab) IgG1 variant T307Q/Y436I (antibody)

- Kd [9]: 66.6 nM
- Kd [10]: 72 nM
- Kd [4]: 8 nM
- Kd [11]: 69.9 nM
- Kd [12]: 76 nM
Substance: anti-VEGF (Bevacizumab) IgG1 variant V308P/N434A (antibody)

Source: patent US20100098730A1
